In patent WO2015050959A1 (dated 2015):
Changes are numbered by the printed parent chain.

What was measured:
[1] = biological target: Wild type KIT expressed on cells (UniProt P10721 26-976, limits assumed); assay: cell-based or functional assay
[2] = biological target: T1, Soluble KITD4-5 fragment (amino acids 308-514) (human, UniProt P10721 308-514, glycosylated Asn320 (partial deglycosylation with endoglycosidase F1)); assay: SPR (Biacore T100, 25 C), KITD4-5 amine-coupled to a CM5 chip, Fab as analyte 0.12-10 nM, 1:1 Langmuir fit
T1 construct: range 308-514; Expressed in Sf9 insect cells with an N-terminal His-tag and a TEV site; also called KITm-5; KITm-s

[3] = biological target: T1, Soluble KITD4-5 fragment (amino acids …); assay: SPR (Biacore T100, 25 C), KITD4-5 amine-coupled to a CM5 chip, Fab as analyte, long dissociation time, 1:1 Langmuir fit

B1: IgG 79D (antibody, V domains shown)
VH: EVQLVESGGGLVQPGGSLRLSCAASGFNISVYMMHWVRQAPGKGLEWVASIYPYSGYTYYADSVKGRFTISADTSKNTAYLQMNSLRAEDTAVYYCARYVYHALDYWGQGTLVTVSS
VL: DIQMTQSPSSLSASVGDRVTITCRASQRGLRNVAVAWYQQKPGKAPKLLIYSASSLYSGVPSRFSGSRSGTDFTLTISSLQPEDFATYYCQQWAVHSLITFGQGTKVEIKR
B1 was tested, and the “concentration at which KIT autophosphorylation was inhibited (NIH-3T3 cells expressing wt KIT, SCF stimulation)” value [1] was 1 nM.

B2: Fab19 (Fab)
VH: B1 VH with V31S, M33S
light: DIQMTQSPSSLSASVGDRVTITCRASQSVSSAVAWYQQKPGKAPKLLIYSASSLYSGVPSRFSGSRSGTDFTLTISSLQPEDFATYYCQQWAVHSLITFGQGTKVEIKRTVAAPSVFIFPPSDSQLKSGTASVVCLLNNFYPREAKVQWKVDNALQSGNSQESVTEQDSKDSTYSLSSTLTLSKADYEKHKVYACEVTHQGLSSPVTKSFNRGECGGSDYKDDDDK
notes: Human synthetic Fab from phage library F, made in E. coli; Light chain carries a C-terminal Flag-tag; also called parental synthetic Fab; anti-D4 Fab
For B2, the “concentration at which KIT autophosphorylation was inhibited (NIH-3T3 cells expressing wt KIT, SCF stimulation)” value [1] was 50 nM and the Kd [2] was 630 pM.

B3: Fab79D (Fab)
heavy: EVQLVESGGGLVQPGGSLRLSCAASGFNISVYMMHWVRQAPGKGLEWVASIYPYSGYTYYADSVKGRFTISADTSKNTAYLQMNSLRAEDTAVYYCARYVYHALDYWGQGTLVTVSSASTKGPSVFPLAPSSKSTSGGTAALGCLVKDYFPEPVTVSWNSGALTSGVHTFPAVLQSSGLYSLSSVVTVPSSSLGTQTYICNVNHKPSNTKVDKKVEPKSC
light: DIQMTQSPSSLSASVGDRVTITCRASQRGLRNVAVAWYQQKPGKAPKLLIYSASSLYSGVPSRFSGSRSGTDFTLTISSLQPEDFATYYCQQWAVHSLITFGQGTKVEIKRTVAAPSVFIFPPSDSQLKSGTASVVCLLNNFYPREAKVQWKVDNALQSGNSQESVTEQDSKDSTYSLSSTLTLSKADYEKHKVYACEVTHQGLSSPVTKSFNRGECGGSDYKDDDDK
notes: Made in E. coli; also called last generation Fab; KIT79D (Fab)
With B3 the Kd [3] was 6.4 pM.
